Experiment: soluble on expression in E. coli; label from the status in PepcDB or PDB records

Soluble on expression in E. coli, soluble:
RSYGPVFEEQPAHTLFPEGSAEEKVTLTCRARANPPATYRWKMNGTELKMGPDSRYRLVAGDLVISNPVKAKDAGSYQCVATNARGTVVSREASLRFGFLQEFSAEERDPVKITEGWGVMFTCSPPPHYPALSYRWLLNEFPNFIPADGRRFVSQTTGNLYIAKTEASDLGNYSCFATSHIDFITKSVFSKFSQLSLAAEDARQYAPSIKAKFPADTYALTGQMVTLECFAFGNPVPQIKWRKLDGSQTSKWLSSEPLLHIQNVDFEDEGTYECEAENIKGRDTYQGRIIIHAQPDWLDVITDTEADIGSDLRWSCVASGKPRPAVRWLRDGQPLASQNRIEVSGGELRFSKLVLEDSGMYQCVAENKHGTVYASAELTVQA
SLVNMNVPDMILYNGKITTLDPSQPEVSAIAITDGLITAVGGDELLNSATEKTKKIDLKRKRAIPGLNDSHIHVIRGGLHYNMELRWEGVPSITIALEMLKEQARRTPAPQWVRVVGGWSEFQFKERRMPTLEEINAVSEDTPVFVLHLYDRALVNRAGLRALGYTKDTPDPPGCLIERDKRGNPTGLLIANPNASILYSSLGKAPILNFDDQINSTRHFMRELNRLGITSAIDAGGGFQNYPDDYRVVEHLAEKEQLTLRIAYNLFTQNPNHEYEDFASWAKIVSPGQGNDKYKMNGAGEMLVFSAADFEKFQMPRPELATMMEADLKKVISLLVENRWPFRLHATYDESITRFLNVFEEVNKEIPFNGLRWWFDHAETISDRSMERVKALNGGIAIQDRMAFQGEYFVDLYGKEAAKRTPPIYRMLDLGIPVGAGSDATRVSSYNPWVALYWMVAGKTIGGLSIYDEKNKLDRKVALELYSKGSAWFSGDEGKKGTLAVGQFADIAVLSADYFTVPEEEIKDLESLLTIMGGQVVYGNDEFKNLSPELPPASPDWSPTGVYGYGGANLAHTILSHDSHDNKLHSCSNPLHQHTHTVIGKDGTKWGIGCTCFAF
MTSEQYSVKLTPDFDNPKWIGRHKHMFNFLDVNHNGRISLDEMVYKASDIVINNLGATPEQAKRHKDAVEAFFGGAGMKYGVETEWPEYIEGWKRLASEELKRYSKNQITLIRLWGDALFDIIDKDQNGAISLDEWKAYTKSDGIIQSSEDCEETFRVCDIDESGQLDVDEMTRQHLGFWYTMDPACEKLYGGAVP
MLVNFIKNFIPHRFYSSKTEIPVVRLHGAIIDSSSSIARTLSLGRCANLLDKAFAYKKAPAVAVIINSPGGSPVQSRLIFKRIRDLAEEKKKQVLMFIEDIAASGGYMIACAGDEIFADPSSIVGSIGVVSASFGFPELLKKIGIERRVYTAGKNKVTLDPFQPEKKTDIEHLKSLQLEVHKTFIDLVKERRAEKLSNDPNIFTGMFWSGKKSVELGLIDGLNDVRSVIKERFGDDTKLRLIIPPKSLFGPKTPSGVTAHAVHTAIDSALMVAQERALWQYYGLLEHHHHHH
MSLIKLIATDMDGTLLNAAHEISQPNIDAIKYAQEQGITVVIATGRAFYEAQAPVADTDLTVPYICLNGAEVRDETFNVMSTSHLNKSLVHKITNVLKDAGIYYQVYTSRAIYTEDPQRDLDIYIDIAERAGQHANVERIKNGIQRRIDNGTLKVVDNYDAIENIPGELIMKILAFDGNLEKIDKASKILAESPNLAISSSSRGNIEITHSDAQKGIALETIAERLGIEMKDVMAIGDNLNDLSMLEKVGYPVAMENGAEEVKKIAKYVTDTNENSGVGKAIMKLLREQEGHHHHHH
MVSYKLTYFNGRGAGEVSRQIFAYAGQQYEDNRVTQEQWPALKETCAAPFGQLPFLEVDGKKLAQSHAIARFLAREFKLNGKTAWEEAQVNSLADQYKDYSSEARPYFYAVMGFGPGDVETLKKDIFLPAFEKFYGFLVNFLKASGSGFLVGDSLTWIDLAIAQHSADLIAKGGDFSKFPELKAHAEKIQAIPQIKKWIETRPVTPF
MSLRGGEDSPVDGARQAAANVFGPIENGVSSAVDPVGNAVSAVRDSGDRHDRLARLETENAALKAKSGSDERGRSRLKQFDKMLGLAGAGQYGIKGAQVIAIGAAQGFSWTITIDAGANDGVKRDMTVLNGDGLVGRVTTVGPNTATVLLANDPDFTVGTRMESGDELGFASGQGSRPLRVELLNGKADVKKGDRLVTFGSQADKPFVPGVPVGTITRVDPNGGDLTRILDVTPFVSFTKLDIVGVVVQAPSKDPRDTVLPEKKQPKPTPTVTVTVTPGADPEGQTRNDEAGQDEAAGQNDATGQNDQTEQQNEQPEPEGHHHHHH

Soluble on expression in E. coli, not soluble:
MGSDKIHHHHHHMRALDIAATGMSAQQLRVDVISNNIANMSTTGYSPRRADFADLHYQQMVRAGAINASDGTVVPAGVQIGLGVRPAAVTVTWEQGTLGATGGQLDVAIEGRGYLEVTLPSGDNAYTRDGALQRTGDGLIVTNDGFEVNPGITIPDDAQEITINANGEVFASFRGEIQPQLLGQLNMVRFTNDNGLEAIGSNLFLETGASGAPLAGDPGEDGMGTFRQGYVEQSSVDAVREITDLIEAQRGYELNAKVLTAADQILGATTQVR
MGSDKIHHHHHHFKLLAADGDSLLVGARNAVYNLSLSTLSVNHKIDWKPPAEHIEECIMKGKSKTDCQNYIRVLARKSAGVSLVCGTHAFSPKCREYTVTEFGIRNTRQFDGQGISPYDPKHNSSALYVPGTNQLFVATVTDFVGNDALIYRKTIDETPSSKSAANIRTQSYDARVLNAPNFVATFAYKEHVYFWFREIASEAIDNNEEPQIYARVARVCKNDKGGARPANERWTSYLKARLNCSLPSGSSPFYFNELKAVSDPIDAGNNNHVVYTVFSTPDSDVRMSAVCKFSMKKIREEFDNGTFKHQNNAQSMWMAFNRNEVPKPRPGSCSPDSTKLPENTVSFILHHPLLHRPIPSVAAPLLVEGADRADLTQITVLPRVRAVGGHNYDILFIGTSDGKVLKVVEVDGNATVIQSATVFQRGVPIVNLLTTKES
MGSDKIHHHHHHVAETTTEQTIQKASSAIHYNAFSHNDYWRERPLLDALSFRFNCVEADLWLIDDELYVSHDRPEPNPAITFENLYLKPLVARIQANGGKVYPGSDRPFYLMVDCKAQGEEMYKLLKKQMEPYKEYFCSVDNGEYKEGAVLFFLSGDRPKNSLPKENSRFTFLDGQIKDLGQGIPASLAPVISDNYSDFFTWKGEGEMPADQLQKMREIIRKVHDEGKLFRWWGAPDTEQFKRFFIKEGVDLVGADDLNGLYNVLNER
MGEEKKKRTVEITIGGKLRSFDIDDPVLPDWVEEKKLSAGNFPYDKKMKREDYDATLEALQVELVKVQFWLQATGKRVMAVFEGRDAAGKGGAIFATHAYLNPRYARVVALTKPTETERGQWYFQRYISHFPTAGEFVLFDRSWYNRAGVEPVMGFCTPDEHKRFLKETPRLEKMLVHDDIHLFKFWLDIGRETQIERFHDRRQSPLKCWKLSDMDIAALTKWDDYTQKRDEMLEKTHTDAAPWTVVRANDKRRARVNLIRHILLALDYEGKDRQAIGEIDDKILGSGPDFLK
MTQQHPHLLEPELGEFLTALKNTPSRLTARTAAWLCIWTASRPGMVRLAEWKEFDLDKATWTTPAAKMKMRRDFVCPLPHQAIAALKELHCLTGRSRWLFPGVGAKNPTISENTINKVFATIGYKGRLVGHGTRHTASTLLREHGWPKEHVEAQLAHKEEGLEHHHHHH
MKYFAYGSNMSLLRLKERVPSSKKLGIVTLKKHQLRFNMSGDDDSGKCDSFETNNHEDIVIGALFEIDENEKDALDRAESLGDGYDEKFVFVQSNSGEVFEALTYYAIKIDASLQPYSWYLNHVIIGAKETKLPTDYLAIIESVECIEDPDTSRDAKQRAMYVLEHHHHHH
